Here are results for 1 molecule from US20120263675A1 (REGENTS OF THE UNIVERSITY OF MICHIGAN, published 2012).

Square brackets hold non-standard residues; d marks the D form. Ends that are not written are not given here. * marks the point of attachment. 5FAM = O=C1OC2(c3ccc(O)cc3Oc3cc(O)ccc32)c2ccc(C(=O)*)cc21; Abu = CC[C@H](N)C(=O)O

The target of experiment [1] is T1, Human XIAP BIR3-only (residues 241-356) with N-terminal 6x His tag (human, UniProt P98170 241-356).
T1 construct: range 241-356; Recombinant, produced in E. coli BL21(DE3); also called XIAP BIR3 protein; not shown: N-terminal 6x His tag from pET28 vector
Kind of experiment: fluorescence polarization, tracer binding to XIAP BIR3. The source says: The FP-based assay for XIAP BIR3 protein was described in detail previously (Nikolovska-Coleska et al., Anal. Biochem. 332:261-73 (2004)). Briefly, 5-carboxyfluorescein was coupled to the lysine side chain of a mutated Smac peptide with the sequence (AbuRPFK-Fam) and this fluorescently tagged peptide (named SM5F) was used as the fluorescent tracer in FP-based binding assay to XIAP BIR3.

Experiment [2] deals with T2, Human cIAP-1 BIR3-only (residues 253-363) (human, UniProt Q13490 253-363).
T2 construct: range 253-363; Cloned into pHis-TEV vector, produced and purified as for XIAP BIR3; also called cIAP-1 BIR3 protein; not shown: tag from pHis-TEV vector
Kind of experiment: fluorescence polarization, tracer binding to cIAP-1 BIR3.

Experiment [3] deals with T3, Human cIAP2 BIR3-only (residues 238-349) (human, UniProt Q13489 238-349).
T3 construct: range 238-349; Cloned into pHis-TEV vector, produced and purified as for XIAP BIR3; also called cIAP-2 BIR3 protein; not shown: tag from pHis-TEV vector
Kind of experiment: fluorescence polarization, tracer binding to cIAP-2 BIR3.

T3 sequence (Q13489 238-349): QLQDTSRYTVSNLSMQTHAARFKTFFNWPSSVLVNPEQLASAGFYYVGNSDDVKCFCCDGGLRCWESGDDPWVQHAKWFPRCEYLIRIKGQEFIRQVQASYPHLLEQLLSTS
T1 sequence (P98170 241-356): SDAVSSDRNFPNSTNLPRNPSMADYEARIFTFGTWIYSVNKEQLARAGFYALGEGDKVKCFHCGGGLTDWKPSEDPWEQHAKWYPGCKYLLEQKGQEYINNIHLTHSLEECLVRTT
T2 sequence (Q13490 253-363): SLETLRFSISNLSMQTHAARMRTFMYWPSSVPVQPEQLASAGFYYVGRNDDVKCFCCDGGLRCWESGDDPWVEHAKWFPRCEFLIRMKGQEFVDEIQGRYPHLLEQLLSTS

B1: SM5F, fluorescently tagged mutated Smac peptide (AbuRPFK-Fam) (peptide)
peptide: [Abu]RPFK(5FAM)
notes: Mutated Smac N-terminal peptide used as tracer in the FP assays; also called fluorescent tracer
B1: the values for the Kd in experiment [1], in experiment [2] and in experiment [3] were 17.9 nM, 4.1 nM and 6.6 nM, respectively.
